Source: patent US20260125454A1 (SHANGHAI JUNSHI BIOSCIENCES, published 2026)
Changes are numbered by the printed parent chain.

B1: hu178 (antibody, V domains shown)
VH: QVQLVQSGAEVKKPGASVKVSCKASGYTFTDYNMHWVRQAPGQGLEWMGYISPYNGGTAYNQKFKFRVTLTVDTSSSTAYMELSRLRSDDTVVYYCAREGLGGYWGQGTLVTVSS
VL: DIVLTQSPDSLAVSLGERATINCQASQNIDGNTYMNWYQQKPGQPPKVLIYSIFNLESGVPDRFSGSGSGTDFTLTISSLQAEDVAVYYCQQSNDYPYTFGQGTKLEIK
notes: 3E5 HC-3/2B8 LC2-1
B2: hu210 (antibody, V domains shown)
VH: B1 VH with S52Y, G57H, A59V, K65R, F66N, S84R, R85S, V92A
VL: DIVLTQSPASLAVSPGQRATITCKASQNIDYDGYAYLNWYQQKPGQPPKVLIYSVFNLESGVPARFSGSGSGTDFTLTINPVEADDTANYYCQQSNEFPYTFGQGTKLEIK
notes: 3H10 HC-2/1A2 LC2-2
B3: hu118 (antibody, V domains shown)
VH: B1 VH with Y50N, S52Y, A59V, K65N, F66N, S84R, R85S, V92A
VL: B2 VL with D85N
notes: 2B8 HC1-2/1A2 LC2-1
B4: hu144 (antibody, V domains shown)
VH: B1 VH with A24T, G44R, R85S, D89E, V92A
VL: B2 VL with D85N
notes: 3E5 HC-1/1A2 LC2-1
B5: hu157 (antibody, V domains shown)
VH: B1 VH with G44R, R85S, D89E, V92A
VL: B2 VL with D85N
notes: 3E5 HC-2/1A2 LC2-1
B6: hu46 (antibody, V domains shown)
VH: QVQLVQSGAEVKKPGASVKVSCKASGYTFTDFNMHWVRQAPGQRLEWMGYIYPYNGDVVYNQNFTNRVTLTVDTSSSTAYMELSSLRSEDTAVYYCAREGLGGYWGQGTLVTVSS
VL: B2 VL with Y31F, L37M, N96H, F98V
notes: 1F5 HC-2/1F5 LC1-3
B7: hu80 (antibody, V domains shown)
VH: B6 VH with T30I, G56A, N63D
VL: B2 VL
notes: 1F5 HC-5/1A2 LC2-2
B8: hu132 (antibody, V domains shown)
VH: B1 VH with Y50N, S52Y, G56A, A59V, K65N, F66N, V92A
VL: B2 VL
notes: 2B8 HC1-3/1A2 LC2-2
B9: hu106 (antibody, V domains shown)
VH: B1 VH with Y50N, S52Y, A59V, K65N, F66N, V92A
VL: B2 VL
notes: 2B8 HC1-1/1A2 LC2-2
B10: hu59 (antibody, V domains shown)
VH: B6 VH with R44G, S84R, E89D
VL: B2 VL with Y31F, L37M, N96H, F98V
notes: 1F5 HC-3/1F5 LC1-3
B11: hu124 (antibody, V domains shown)
VH: B1 VH with Y50N, S52Y, A59V, K65N, F66N, S84R, R85S, V92A
VL: B2 VL with Y31F, L37M, N96H, F98V
notes: 2B8 HC1-2/1F5 LC1-3
B12: hu204 (antibody, V domains shown)
VH: B6 VH with F32Y, R44G, D57H, V58T, N63K, T65R, L70M, S84R, E89D, R98K
VL: B1 VL
notes: 3H10 HC-1/2B8 LC2-1
B13: hu15 (antibody, V domains shown)
VH: B6 VH with F32Y, Y52F, D57V, V58A, Q62R, N63K, T65R, N66S
VL: B2 VL
notes: 1B2 HC-2/1A2 LC2-2
B14: hu137 (antibody, V domains shown)
VH: B1 VH with Y50N, S52Y, G56A, A59V, K65N, F66N, V92A
VL: B2 VL with Y31F, L37M, N96H, F98V
notes: 2B8 HC1-3/1F5 LC1-3
B15: hu111 (antibody, V domains shown)
VH: B1 VH with Y50N, S52Y, A59V, K65N, F66N, V92A
VL: B2 VL with Y31F, L37M, N96H, F98V
notes: 2B8 HC1-1/1F5 LC1-3
B16: hu79 (antibody, V domains shown)
VH: B6 VH with T30I, G56A, N63D
VL: B2 VL with D85N
notes: 1F5 HC-5/1A2 LC2-1
B17: hu14 (antibody, V domains shown)
VH: B6 VH with F32Y, Y52F, D57V, V58A, Q62R, N63K, T65R, N66S
VL: B2 VL with D85N
notes: 1B2 HC-2/1A2 LC2-1
B18: hu1 (antibody, V domains shown)
VH: QVQLVQSGAEVKKPGASVKVSCKASGYTFTDYNMHWVRQAPGQGLEWMGYIFPYNGVAVYNRKFRSRVTLTIDTSSSTAYMELRSLRSDDTAVYYCAREGLGGYWGQGTLVTVSS
VL: B2 VL with D85N
notes: 1B2 HC-1/1A2 LC2-1
B19: hu20 (antibody, V domains shown)
VH: B18 VH with G44R, I72V, R84S, D89E
VL: B2 VL with Y31F, L37M, N96H, F98V
notes: 1B2 HC-2/1F5 LC1-3
B20: hu7 (antibody, V domains shown)
VH: B18 VH
VL: B2 VL with Y31F, L37M, N96H, F98V
notes: 1B2 HC-1/1F5 LC1-3
B21: hu40 (antibody, V domains shown)
VH: B6 VH
VL: B2 VL with D85N
notes: 1F5 HC-2/1A2 LC2-1
B22: hu92 (antibody, V domains shown)
VH: B6 VH with F32Y, I51V, D57G, V58S, V59A, N63K, T65K, N66S
VL: B2 VL with D85N
notes: 2A2 HC-1/1A2 LC2-1
B23: hu54 (antibody, V domains shown)
VH: B6 VH with R44G, S84R, E89D
VL: B2 VL
notes: 1F5 HC-3/1A2 LC2-2
B24: hu191 (antibody, V domains shown)
VH: B1 VH with A24T, G44R, G56A, R85S, D89E, V92A
VL: B1 VL
notes: 3E5 HC-4/2B8 LC2-1
B25: hu28 (antibody, V domains shown)
VH: B6 VH with T30I
VL: B2 VL
notes: 1F5 HC-1/1A2 LC2-2
B26: hu2 (antibody, V domains shown)
VH: B18 VH
VL: B2 VL
notes: 1B2 HC-1/1A2 LC2-2
B27: hu27 (antibody, V domains shown)
VH: B6 VH with T30I
VL: B2 VL with D85N
notes: 1F5 HC-1/1A2 LC2-1
B28: hu53 (antibody, V domains shown)
VH: B6 VH with R44G, S84R, E89D
VL: B2 VL with D85N
notes: 1F5 HC-3/1A2 LC2-1
B29: hu105 (antibody, V domains shown)
VH: B1 VH with Y50N, S52Y, A59V, K65N, F66N, V92A
VL: B2 VL with D85N
notes: 2B8 HC1-1/1A2 LC2-1
B30: hu41 (antibody, V domains shown)
VH: B6 VH
VL: B2 VL
notes: 1F5 HC-2/1A2 LC2-2
B31: hu119 (antibody, V domains shown)
VH: B18 VH with Y50N, F52Y, V57G, A58T, R62Q, R65N, S66N, I72V
VL: B2 VL
notes: 2B8 HC1-2/1A2 LC2-2
B32: hu93 (antibody, V domains shown)
VH: B6 VH with F32Y, I51V, D57G, V58S, V59A, N63K, T65K, N66S
VL: B2 VL
notes: 2A2 HC-1/1A2 LC2-2

Molecular target: T1, Biotin-huCGRPaSA (human, not fully specified; biotin (position not given))
T1 construct: exact construct ('aSA') not explained; also called Biotin CGRPaSA; full-length (1-37) CGRP
T1 peptide: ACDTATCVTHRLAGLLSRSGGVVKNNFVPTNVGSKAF
Assay: ELISA, supernatant; relative to chimeric C245
Experimental: Biotin CGRPaSA was diluted with PBS (Hyclone) to 1.0 μg/mL, and the dilution was added to a microplate at 100 μL/well. The plate was let stand in an incubator at 37° C. and coated for 90 min and then washed, and 2% BSA was added to the plate at 200 μL/well. The plate was incubated in an incubator at 37° C. for 90 min and then washed. The humanized antibodies in Table 8 and the reference antibody (chimeric antibody C245) were diluted to 1000 ng/mL with a diluent (2% BSA) with a dilution factor of not more than 10. Then, the chimeric antibodies and the reference antibody were serially 2.5-fold diluted on a sample dilution plate. All the chimeric antibody solutions and the reference antibody solution were added into plates at 100 μL/well, and the plates were incubated in a thermostat incubator at 37° C. for 60 min and washed. An HRP-conjugated goat anti-human antibody IgG (manufacturer: Sigma, Cat. No. A0170; Fc specificity) was diluted 5000-fold with 2% BSA and added into the plates at 100 μL/well, and the plates were incubated in the thermostat incubator at 37° C. for 60 min and washed. Chromogenic reagent TMB was carefully added at 100 μL/well to avoid bubbles, and the system was incubated at 37° C. for 15 min away from light for chromogenic reaction. Finally, a 2 M hydrochloric acid solution was added at 100 μL/well to stop the reaction while avoiding bubbles, and the plates were read on a microplate reader within 10 min (wavelength: 450/620 nm).

Binder | Relative binding activity, %
B1 | 65%
B2 | 73%
B3 | 60%
B4 | 101%
B5 | 15%
B6 | 25%
B7 | 99%
B8 | 108%
B9 | 38%
B10 | 70%
B11 | 96%
B12 | 68%
B13 | 44%
B14 | 93%
B15 | 46%
B16 | 80%

Binder | Relative binding activity, %
B17 | 32%
B18 | 58%
B19 | 40%
B20 | 80%
B21 | 49%
B22 | 32%
B23 | 22%
B24 | 68%
B25 | 71%
B26 | 64%
B27 | 28%
B28 | 13%
B29 | 31%
B30 | 61%
B31 | 51%
B32 | 45%
